From patent US20240034813A1 (Janssen / Centocor, published 2024)

Legend:
[1] = biological target: T1, recombinant human EGFR/ErbB1/HER1 with C-terminal His tag, Cy5-labeled (human, UniProt P00533 25-645, Cy5 label (reacted with Cy5 Mono NHS Ester; sites not stated)); test: competitive TR-FRET (Eu-amivantamab/Cy5-EGFR), EC50 ratio vs Reference Material; Ex. 11 drug product, 5 months at 5 C
T1 construct: Commercial protein; also called Cy5-EGFR; Cy5-labeled EGFR antigen; not shown: C-terminal His tag
Text: (§1) In this procedure, varying concentrations of unlabeled bispecific EGFR-cMet antibody sample compete with donor fluorophore (Europium (Eu) chelate) labeled bispecific EGFR-cMet antibody for binding to an acceptor fluorophore (Cy5)-labeled EGFR antigen. Excitation of the donor fluorophore results in a transfer of energy to the bound acceptor fluorophore (FRET process). The resultant FRET is detected by emission of light at 665 nm using a microplate reader capable of measuring time-resolved fluorescence. Sample dose response curves are compared to the RM.
(§2) EGFR Binding Materials and Methods. Certified commercial EGFR, a recombinant human EGFR/ErbB1/HER1 with C-terminal His tag is reacted with certified commercial Cy5 Mono NHS Ester to produce Cy5-labeled EGFR. Validated bispecific EGFR-cMet antibody is reacted with certified commercial Europium (Eu) chelate to produce Eu-labeled bispecific EGFR-cMet antibody. […] Fluorescence is then measured by spectrophotometry at 665 nm, plotted against antibody concentration and analyzed by a four-parameter logistic model. The antibody concentration required to obtain half of the maximum fluorescence response (EC50) is determined for RM, assay control and samples. The potencies of assay control and samples are calculated based on the ratio of the sample (or control) and RM EC50 values and reported as a percentage activity relative to the RM.

[2] = biological target: T2, recombinant cMet/HGFR with c-terminal His-tag, Cy5-labeled (UniProt P08581 25-932, limits assumed, Cy5 label (reacted with Cy5 Mono NHS Ester; sites not stated)); test: competitive TR-FRET (Eu-amivantamab/Cy5-c-MET), EC50 ratio vs Reference Material; Ex. 11 drug product, 12 months at 5 C
T2 construct: Commercial protein; also called Cy5-c-MET; Cy5-labeled c-MET antigen; not shown: C-terminal His-tag
Text: as §1, with “(Cy5)-labeled c-MET” for “(Cy5)-labeled EGFR”, “the Reference Material (RM).” for “the RM.”
as §2, with “c-MET Binding” for “EGFR Binding”, “commercial cMet,” for “commercial EGFR,”, “recombinant cMet/HGFR” for “recombinant human EGFR/ErbB1/HER1”, “with c-terminal His-tag” for “with C-terminal His tag”, “Cy5-labeled c-MET.” for “Cy5-labeled EGFR.”, “produce Eu labeled” for “produce Eu-labeled”

[3] = biological target: T1, recombinant human EGFR/ErbB1/HER1 with …; test: competitive TR-FRET (Eu-amivantamab/Cy5-EGFR), EC50 ratio vs Reference Material; Ex. 11 drug product, 0 months, 40 C table
Text: as §1, §2

[4] = biological target: T2, recombinant cMet/HGFR with c-terminal …; test: competitive TR-FRET (Eu-amivantamab/Cy5-c-MET), EC50 ratio vs Reference Material; Ex. 2 Formulation 2 (50 mM histidine), T0, 5 C table
Text: as §1, with “(Cy5)-labeled c-MET” for “(Cy5)-labeled EGFR”, “the Reference Material (RM).” for “the RM.”
as §2, with “c-MET Binding” for “EGFR Binding”, “commercial cMet,” for “commercial EGFR,”, “recombinant cMet/HGFR” for “recombinant human EGFR/ErbB1/HER1”, “with c-terminal His-tag” for “with C-terminal His tag”, “Cy5-labeled c-MET.” for “Cy5-labeled EGFR.”, “produce Eu labeled” for “produce Eu-labeled”

[5] = biological target: T2, recombinant cMet/HGFR with c-terminal …; test: competitive TR-FRET (Eu-amivantamab/Cy5-c-MET), EC50 ratio vs Reference Material; Ex. 3 acetate formulation, 6 months at 25 C, untreated control
Text: as §1, with “(Cy5)-labeled c-MET” for “(Cy5)-labeled EGFR”, “the Reference Material (RM).” for “the RM.”
as §2, with “c-MET Binding” for “EGFR Binding”, “commercial cMet,” for “commercial EGFR,”, “recombinant cMet/HGFR” for “recombinant human EGFR/ErbB1/HER1”, “with c-terminal His-tag” for “with C-terminal His tag”, “Cy5-labeled c-MET.” for “Cy5-labeled EGFR.”, “produce Eu labeled” for “produce Eu-labeled”

[6] = biological target: T2, recombinant cMet/HGFR with c-terminal …; test: competitive TR-FRET (Eu-amivantamab/Cy5-c-MET), EC50 ratio vs Reference Material; Ex. 2 Formulation 2 (50 mM histidine), T0, 25 C table
Text: as §1, with “(Cy5)-labeled c-MET” for “(Cy5)-labeled EGFR”, “the Reference Material (RM).” for “the RM.”
as §2, with “c-MET Binding” for “EGFR Binding”, “commercial cMet,” for “commercial EGFR,”, “recombinant cMet/HGFR” for “recombinant human EGFR/ErbB1/HER1”, “with c-terminal His-tag” for “with C-terminal His tag”, “Cy5-labeled c-MET.” for “Cy5-labeled EGFR.”, “produce Eu labeled” for “produce Eu-labeled”

[7] = biological target: T1, recombinant human EGFR/ErbB1/HER1 with …; test: competitive TR-FRET (Eu-amivantamab/Cy5-EGFR), EC50 ratio vs Reference Material; Ex. 11 drug product, 3 months at 5 C
Text: as §1, §2

[8] = biological target: T2, recombinant cMet/HGFR with c-terminal …; test: competitive TR-FRET (Eu-amivantamab/Cy5-c-MET), EC50 ratio vs Reference Material; Ex. 12 drug product with rHuPH20, 6 months at 25 C
Text: as §1, with “(Cy5)-labeled c-MET” for “(Cy5)-labeled EGFR”, “the Reference Material (RM).” for “the RM.”
as §2, with “c-MET Binding” for “EGFR Binding”, “commercial cMet,” for “commercial EGFR,”, “recombinant cMet/HGFR” for “recombinant human EGFR/ErbB1/HER1”, “with c-terminal His-tag” for “with C-terminal His tag”, “Cy5-labeled c-MET.” for “Cy5-labeled EGFR.”, “produce Eu labeled” for “produce Eu-labeled”

[9] = biological target: T1, recombinant human EGFR/ErbB1/HER1 with …; test: competitive TR-FRET (Eu-amivantamab/Cy5-EGFR), EC50 ratio vs Reference Material; Ex. 12 drug product with rHuPH20, 3 months at 5 C
Text: as §1, §2

B1: amivantamab (bispecific antibody, human IgG1, kappa)
heavy 1: not shown
light 1: not shown
heavy 2: not shown
light 2: DIQMTQSPSSVSASVGDRVTITCRASQGISNWLAWFQHKPGKAPKLLIYAASSLLSGVPSRFSGSGSGTDFTLTISSLQPEDFATYYCQQANSFPITFGQGTRLEIKRTVAAPSVFIFPPSDEQLKSGTASVVCLLNNFYPREAKVQWKVDNALQSGNSQESVTEQDSKDSTYSLSSTLTLSKADYEKHKVYACEVTHQGLSSPVTKSFNRGEC
notes: The samples tested were high concentration (160 mg/mL) formulations, fresh or stored or stressed; also called JNJ-61186372; bispecific EGFR-cMet antibody
With B1 the “EGFR Binding activity relative to Reference Material (%)” value [1] was 85%, the “cMET Binding activity relative to Reference Material (%)” value [2] was 98% and the “EGFR Binding activity relative to Reference Material (%)” value [3] was 89%. The “cMET Binding % activity relative to RM” value [4] was 102%, the “cMET Binding % activity relative to RM” value [5] was 99% and the “cMET Binding % activity relative to RM” value [6] was 102%. For the same binder, the “EGFR Binding activity relative to Reference Material (%)” value [7] was 74%, the “cMET Binding activity relative to Reference Material (%)” value [8] was 103% and the “EGFR Binding activity relative to Reference Material (%)” value [9] was 82%.
